For the assay, the target named is HIV-1 JRFL Env (full length), on infected primary CD4+ T cells and on virions (HIV-1 JRFL, UniProt P20871 32-503; P20871 504-848). Briefly: cell-based or functional assay.

B1: A32 antibody (antibody, V domains shown)
VH: QVQLQESGPGLVKPSQTLSLSCTVSGGSSSSGAHYWSWIRQYPGKGLEWIGYIHYSGNTYYNPSLKSRITISQHTSENQFSLKLNSVTVADTAVYYCARGTRLRTLRNAFDIWGQGTMVTVSS
VL: VLTQPPSASGSPGQSVTISCTGTSSDVGGYNYVSWYQHHPGKAPKLIISEVNNRPSGVPDRFSGSKSGNTASLTVSGLQAEDEAEYYCSSYTDIHNFVFGGGTKLTVLG
In the case of B1, the “Neutralization IC50 against JRFL (A32 + sCD4 mix)” value is over 10 µg/mL and the “Neutralization IC50 against JRFL (A32 antibody alone)” value was over 10 µg/mL.

B2: N5-i5 antibody (antibody, V domains shown)
VH: EVQLVESGGGLVQPGGSLRLSCAASGFTFSTYAMSWVRQAPGKGLEWVSSINNSGRNTFSADSVKGRFTISRDNSKNTLFLVMNSLRAEDTAVYYCAKDLRLGGGSDYWGQGTLVTVSS
VL: QSALTQPASVSGSPGQSITISCTGTSSDVGSYNFVSWYQQHPGKAPKLMIYEVSERPSGISNRFSGSKSGNTASLTISGLQAEDEADYYCSSYAGSTTFRVFGGGTKLTVRG
In the case of B2, the “Neutralization IC50 against JRFL (N5-i5 + sCD4 mix)” value is over 10 µg/mL and the “Neutralization IC50 against JRFL (N5-i5 antibody alone)” value is over 10 µg/mL.

B3: X5 antibody (antibody, V domains shown)
VH: VQLLEQSGAEVKKPGSSVQVSCKASGGTFSMYGFNWVRQAPGHGLEWMGGIIPIFGTSNYAQKFRGRVTFTADQATSTAYMELTNLRSDDTAVYYCARDFGPDWEDGDSYDGSGRGFFDFWGQGTLVTVSS
VL: ELVLTQSPGTLSLSAGERATLSCRASQSVSSGSLAWYQQKPGQAPRLLIYGASTRATGIPDRFSGSGSGTDFTLTIGRLEPEDLAVYYCQQYGTSPYTFGQGTKLEIKR
With B3, the “Neutralization IC50 against JRFL (X5 + sCD4 mix)” value stood at 3.23 µg/mL and the “Neutralization IC50 against JRFL (X5 antibody alone)” value is over 10 µg/mL.

(Values after patent US20240285790A1 (HENRY M JACKSON FOUNDATION FOR THE ADVANCEMENT OF MILITARY …, published 2024).)
